Reference: patent US20040110252A1, “Yeast-based assay” (priority 2000, published 2004)
Read-outs that look alike come from different tables or passages of the source.

Experiments:
[1] = test system: Sz. pombe cells; conditions: cited from earlier work
[2] = test system: S. cerevisiae cells; conditions: cited from earlier work
[3] = target: P-factor receptor (encoded by the mam2 gene) (Schizosaccharomyces pombe) (UniProt Q00619)

## Diphtheria toxin
[1]
  Sensitivity of cells to the toxin: sensitive
[2]; S. cerevisiae spheroplasts (cell wall enzymatically removed)
  Sensitivity of cells to the toxin: sensitive
[2]; intact S. cerevisiae cells
  Sensitivity of cells to the toxin: resistant

## P-factor mating pheromone (peptide)
[3]
  colony formation of sxa2>ura4 reporter cells on plates lacking uracil with different concentrations of P-factor: > 10 units/ml
